Measurements taken from PMC8754651 (2021).

B1: human RPB6 (residues 1–24), NTT peptide [human] / human TFIIH p62 PH domain (PH-D) (residues 1–108) [human] (parent complex)
chain 1: MSDNEDNFDGDDFDDVEEDEGLDD
chain 2: MATSSEEVLLIVKKVRQKKQDGALYLMAERIAWAPEGKDRFTISHMYADIKCQKISPEGKAKIQLQLVLHAGDTTNFHFSNESTAVKERDAVKDLLQQLLPKFKRKAN

Variants of: B1
Assay: ITC

Variant	Kd [µM]
chain 1 MADNEDNFDGDDFDDVEEDEGLDD [chain 1 S2A]	3.65
chain 1 MSDNEDNADGDDFDDVEEDEGLDD [chain 1 F8A]	2.85

Continued by falling Kd, values first:

Kd [µM]	Variant
7.35	chain 1 MSDNEDNFDGDDADDAEEDEGLDD [chain 1 F13A, chain 1 V16A]
7.14	chain 1 MSDNEDNFDGDDFDDAEEDEGLDD [chain 1 V16A]
